Data taken from the nanobody polyreactivity screen of Harvey et al. (2022).

Test: yeast display, Sf9 membrane polyspecificity reagent, FACS + sequencing; frameworks hold sequencing errors
Method in brief: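 Genes from sorted yeast were amplified by colony PCR, read by MiSeq 2 × 250 sequencing and filtered on CDR length. These cells carried a synthetic nanobody library in Saccharomyces cerevisiae BJ5465 and were sorted by FACS into low and high (top ~1%) gates on anti-HA and streptavidin fluorescence. Polyreactivity is labelled according to the gate of origin.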

Sequence	polyreactivity (PSR sort gate)
QVQLVESGGGLVQAGGSLRLSCAASGIIFSPYAMGWYRQAPGKERELVAAISYSGGSTYYADSVKGRYTISRDNAKNSVYLQMNSLKPEETAVYYCAVFYSYYLAFMGYWDYDYWGQGTQVTVSS	low polyreactivity
QVQLVESGGGLVQAGGSLRLSCAASGSIFEGNGMGWYIQAPGKERELVAAITFRSGSTYYADSVKGRFTISLDNAKNTVYLQMNSLKPEDTAVYYCAADEYYQVSAYDYWGQGTQVTVSS	low polyreactivity
QVQLVESGGGLVQAGGSLRLSCAASGRIFTPYAMGWYRQAPGKERELVAGISSSGGSTYYADSVKGRFTISRDNAKNTVYLQMNSLKPEDTAVYFCNKRYRGTPRSYDYWGQGTQVTVSS	high polyreactivity
QVQLVESGGGLVQAGGSLRLSCAAYGRTFFSYTMGWYRQAPGKERELVASITWSGGSTYYADSVKGRFTISRDNAKNTVYLQMNSLKPEDTAVYYCAADEKLYITGYDYWGQGTQVNVSS	low polyreactivity
QVQLVESGGGLVQAGGSLRLSCAASGSIFKYYAMGWYRQAPGKERELVAAISYSGGRTYYADSVKGRFTISRDNAKNTVYLQMNSLKPEDTAVYYCNAELYPWPGVVRYNYWGQGTQVTVSS	high polyreactivity
QVQLVESCGGLVQAGGSLRLSCAASGFICNGYTMGWSRQAPWKERELVAAISGSGGRTYYADSVKGRFTISRDNAKKTVYLQMNSLKPEDTAVYYCAASNWHSRGSGEYYWGQGTQVTVSS	high polyreactivity
QVQLVESGGGLVQAGGSLRLSCAASGSIFVYNAMGWYRQAPGKEMELVAAISTSGGRTYYADSVKGRFTISRDNAKNTVYLQMNSLKTEDTAVYYCNALGYWRRVVDGFDYWGQGTQVTVSS	high polyreactivity
QVQLVESGGGLVQAGGSLRLSCAATGSIFYHYAMGWYRQAPGKERELVAAISGSGGSTYYADSVKGRFTISRDNAKNTVYLQMNSLKPEDTAVYYCAADTSRYHYSRYFFDSDYWGQGTQVTVSS	low polyreactivity
QVQLVESGGGLVQAGGSLRLSCAASGLIFYYYAMGWYRQAPGKERELVAAITWTAGSTSYADSVKGRFTISRDNAKNTVYLQMNSLKPEDTAVYYCAADYRHDTFSNEYDYWGQGTQVTVSS	low polyreactivity
QVQLVESGGGLVQAGGSLRLSCAASGRTFTRYAMGWYRQAPGKERELVAAISRGGGGTYYADSVKGRFTISRDNAKNTVYLQMNSLKPEDTAVYYCAADGDRSAQRYTGYYYWGQGTQVTVSS	high polyreactivity
QVQLVESGGGLVQAGGSLRLSCAASGSILKSYAMGWYRQAPGKERELVAAITYRDGSTYYADSVKGRFTISRDNAKNTVYLQMNSLKPEDTAVYYCAAEPSWWNVFYPGYNYWGQGTQVTVSA	high polyreactivity
QVQLVESGGGLVQAGGSLRLICAASGRIFGYNAMGWSRQAPGKERELVAAIRGSGSTYYADSVKGRFTISRDNAKNTVYLQMNSLKPEDTAVYYCAARTSSTKYYYWGQGTQVTVSS	high polyreactivity
QVQLVESGGGLVQAGGSLRLSCAASGRIFVGYAMGWYRQAPGKERELVAAINRSGSSTYYADSVKGRFTISRDNAKNTVYLQMNSLKPEDTAVYYCNARSGNRYGPRYDYWGQGTQVTVSS	high polyreactivity
QVQLVESGGGLVQAGGSLRLSCAASGIIFTYYAMGWYRQAPGKERELVAAISYRGGSTNYADSVKGRFTISRDNAKNTVYLQMNSLKPEDTAVYYCAAKSYWKRFRVLYDYWGQGTQVTVSS	high polyreactivity
QVQLVESGGGLVQAGGSLRLSFAASGSTFSEYALGLYRQAPGKERELVAAITSSSGSTYYADSVKGRFTISRVNAKNTVYLQMNSLKPEDTAVYYCNAYYRTVYYDWGDYEYWGEGTQVTVSS	high polyreactivity
QVLLQESGGGLVQAGGSLRLSCAASGSIFLFYTMGWYRQAPVKEREFVAGITLGTTTYNADSVKGRFTISRDNVKNTVYLQMNSLKPEATAVYYCAVAVGHYTVFWYWGQGTQVTMSS	high polyreactivity
QVQLVESGGGLVQAGGSLRLSCAASGFIFGYNVMGWYIQAPGKERELVASISTGGRTYYADSVKGRFTISRDNAKNTVYLQMYSLKPEDTAVYYCAARYRSYSYLYYSWGQGTQVTVSS	high polyreactivity
QVQLVESGGGLVQAGGSLSLSCAASGSIFYGYAMGWYRQAPGKERELVAAITSGGRTYYADSVKGRFTISRDNAKNTVYLQMNSLKPEDTAVYYCNAVYRKTSYGYWGQGTQVTVSS	high polyreactivity
QVQLVESGGGLVQAGGSLRLTCAASGRTFWRYGMGWYRPAPVKETELVAAITDSVDSTNYADSVKGRFTISRDNAKNTVYLQMNSLKPEDTAVYYCAASDVVFALNGYYPGEDDYWGQGTQVTVSS	low polyreactivity
QVQLVESGGGLVQAGGSLRLSCAASGSTFILNDMGWYRQAPGKERELVAAIDWGDSTTYYADSVKGRFTISRDNAKNTVYLQMNSLKPEDTAVYYCAADYAVSAFTRYPPTEYWGQGTQVTVSS	high polyreactivity
QVQLVESGGGLVQAGGSLRLSCAASGSILFTNAMGWYRQAPGKERELVAAISSGGSTYYADSVKGRFTISRDNAKNTVYLQMNSLKPEDTAVYYCAADQLNVGREYVEYDYWGQGTQVTVSS	low polyreactivity
QVQLVESGGVLVQAGGSLRLSCAASGLNLAPNAMGWYRQAPGKEMELVAAITRSGGDTYYADSVKGRFTISRENAKNTVYLQMNSLKPEDTAVYYCAKARPGFLYDHWGQGTQVTVSS	high polyreactivity

Sequence	polyreactivity (PSR sort gate)
QVQLVESGGGLVQAGGSLRLSCAASGITFSSYAMGWSRQAPGKERELVAAITSRGGSTYYADSVKGRFTISRDNAKNTVYLQMNSLKPEDTAVYYCNASRVRRWNDYYKKFDYWGQGTQVTVSS	high polyreactivity
QVQLVESGGGLVQAGGSLRLSCAASGFIFGTYVMGWYRQAPGKERELVAAISESGGRTYYADSVKGRFTISRDNAKNTVYLQMNSLKPEDTADYYCAKLRHIRFHYYYGYQSYYYWVQGTQVTVSS	high polyreactivity
QVQLVESGGGLVQAGGSLRLSCAASGSTFDGYAMGWSRQAPGKERELVGSITRRGGSTYYADSVKGRFTISRDNAKNTVYVQMNSLKPEDTAVYYCAVLGRGVSGYTWPYDYWGQGTQVTVSS	high polyreactivity
QVQLVESGGGLVQAGGSLRLSCAASGSTWYYAMGWYRQAPGKERELVATISSGSRTYYADSVKGRFTISRDNAKNTVYLQMNSLKPEDTAVYYCAARRRRFYYQYYRYDYWGQGTQVTVSS	high polyreactivity
QVQLVESGGGLVHAGGSLRLSCAASGLTFVNYAMGWYRQAPGKERELVATISKTGGSTYYADSVKGRFTISRDNAKNTVFLQMNSLKPEDTAVYYCAVDAYYYKWYDYWGQGTQVSVSS	high polyreactivity
QVQHVESGGGLVQAGRSLRLSCAATGYIFWKNAMGWYRQAPGKERELVAGITIRGGRTYYADSVKGRFTISRDNAKNTVYLQMNSLKPEDTAVYYCAAGTGVSRYRYVYWGQGTQVTVSS	high polyreactivity
QVQLVESGGGLVQARGSLRLSCAASGGTFESYAMGWYRQAPGKERELVAAITYSGGSTYYADSVKGRFTISRDNAKNTVYLQMNSLKPEDTAVYYCAARPRFITYKRYYWGQGTQVTVSS	high polyreactivity
QVQLVESGGGLVQAGGSLRLSCAASGSIFGTYTMGWYRQAPGKERELVASISRRGGSTYYADSVKGRFTISRDNAKNTVYLQMNSLKPEDTAVYYCAKPVYYLPGEYDYWGQGTQVTVSS	high polyreactivity
QVQLVESGGGLVQAGGSLRLSCAASGRTFTFNTMGWYRQAPGKERELVAAITISDGRTYYADSVKGRFTISRDNAKNTVYLQMNSLKREVTAVYYCAAVQKYGYYWRHNDYWGQGTQVTVSS	low polyreactivity
QVQHVESGGGLVQAGGSLRLSCAASGSTFWYYDMGWYRQAPGKEMELVAAISGSGGRTYYADSVKGRFTISRDNAKNTVYLQMNSLKPEDTAVYYCAADDYWSADFKYNYWGQGTQVTVSS	low polyreactivity
QVQLVESGGGLVQAGGSLRLSCAASGNIFYSYAMGWYRQAPGNERELVAAISWGGGRTYYADSVKGRFTISRDNAKNTVYLQMNSLKPEDTAVYYCNKVTRGGYDYWGQGTQVTVSS	high polyreactivity
QVQLVESGGGLVQAGGSLRLSCAASGFIFGTNTMGWYRQAPGKERELVAAITSVGSTNYADSVKGRFTISRDNAKNTVYLQMNSLKPEDTAVYYCPATLYYQYGGDYWGQGTQVTVSS	low polyreactivity
QVQLVESGGGLVQAGGSLRLSCAASGSIFRYYAMGWYRQAPRKERELVAAISSNGGSTSYADSVKGRFTISRDNAKNTVYLQMNSLIPEYTAVYYCNTQFRYPQKYDYWGQGTQVTVSS	high polyreactivity
QVQLVESGGGLVQAGGSLRLSCAASGSIFPGYAMGWYRQAPGKERELDATITWSGGSTYYADSVKGRFTISRDTAKNTVYLQMNSLKPEDTAVYYCNADSNWYYQWNYYGLYDYWGQGTQVTVSS	low polyreactivity
QVQLVESGGGLVQAGGSLRLSCAASGSTFSFYAMGWYRQAPGKERELVAAISSRGGSTYYADSVKGRFTISRDNAKNTVYLQMNSLKPEDTAVYYCAVRRYPHFYHRGGFNFNGYDYWGQGTQVTVSS	high polyreactivity
QVQLVESGGGLVQAGGSLRLSCAASGRIFAKNAMGWYRQAPGKERELVAAINHSGGSTYYADSVKGRFTISRDNAKNTVYLQMNSLKPEDTAVYYCAARGLTTRSPFYYWGQGTQVTVSS	high polyreactivity
QVQLVESGGGLVQAGGSLRLSCAASGLIFRYNAMGWYRQAPGKERELVASITSDGSTNYADSVKGRFTISRDNAKNTVYLQMNSLKPEDTAVYYCAADGYTYCYYQLIPDYDYWGQGTQVTVSS	low polyreactivity
QVQLVESGGGLVQAGGSLRLSCAASGSIFNYNMGLYRQAPGKERELVAAVSTNYADSVKGRFTISRDNAKNTVYLQMNSLKPEDYAVYYCGVTPEKSGDEYDNWGQGTQVTVSS	low polyreactivity
QVQLVESGGGLDQAGGSLRLSCAASGRIFRPNAMGWYRQAPGKERELVAAITSGGSTNYADSVKGRFTISRDNAKNTVYLQMNSLKPEDNAVYYCAKGYKYGKNIYYYWGQGTQVTVSS	high polyreactivity
QVQLVESGGGLVQAGGSLRLSCAASGSTFDGYAMGWYRQAPGKERELVAAITSSSTSTYYADSVKGRFTISRDNAKNTVYLQMNSLKPEDTAVYYCAAQYFSYISVYSFYTMGYWGQGTQVTVSS	low polyreactivity
QVQLVESGGGLVQAGGSLRLSCAASGRTFFTNALGGYRQAPGKVRELVASINSGGNTTYADSVKGRFTISRDNAKNTVYLQINSLKPEDTAVSYCAAVRSAQRWRRYYYGGQGTQVTVSS	low polyreactivity
